{"source": "patent US9744220B2", "about": "“Compositions and methods for treating inflammatory diseases” (priority 2013, dated 2017)", "molecules": {"B1": {"name": "sPDNF: N-terminal short-form of T cruzi PDNF that contains Trk-binding sites, recombinant; amino acids 1-588 of SEQ ID NO: 2; JR-100 is the commercial name (protein, listed as Trypanosoma cruzi)", "chain": "MGKTVVVASRMFWLMFFVPLLLAICPSEPAYALAPGSSRVELFKRKNSTVPFEDKAGKVTERVVHSFRLPALVNVDGVMVAIADARYDTSNDNSLIDTVAKYSVDDGETWETQIAIKNSRVSSVSRVVDPTVIVKGNKLYVLVGSYYSSRSYWSSHGDARDWDILLAVGEVTKSTAGGKITASIKWGSPVSLKKFFPAEMEGMHTNQFLGGAGVAIVASNGNLVYPVQVTNKKKQVFSKIFYSEDDGKTWKFGKGRSDFGCSEPVALEWEGKLIINTRVDWKRRLVYESSDMEKPWVEAVGTVSRVWGPSPKSNQPGSQSSFTAVTIEGMRVMLFTHPLNFKGRWLRDRLNLWLTDNQRIYNVGQVSIGDENSAYSSVLYKDDKLYCLHEINTDEVYSLVFARLVGELRIIKSVLRSWKNWDSHLSSICTPADPAASSSESGCGPAVTTVGLVGFLSGNASQNVWEDAYRCVNASTANAERVRNGLKFAGVGGGALWPVSQQGQNQRYRFANHAFTLVASVTIHEAPRAASPLLGASLDSSGGKKLLGLSYDEKHQWQPIYGSTPVTPTGSWETGKRYHLVLTMANKI"}}, "key": {"[1]": {"test_system": "cardiac and hepatic stem cell markers", "test": "Intravenous sPDNF into naïve mice, stem cell markers by real time PCR", "type": "in vivo", "details": "independently of TLR signaling", "protocol": "FIG. 2A is a graph showing stem cell marker expression in mice administered sPDNF. One set of three wild type C57BL/6 mice received intravenous (IV) PBS without (PBS) or with sPDNF (2 mg/kg) at 0, 3 and 24 hours (sPDNF 1d), and a second set IV sPDNF (2 mg/kg) for 6 days (sPDNF 6d). Mice were sacrificed 3 hr post injection and the indicated stem cells markers were quantified in the ventricles by real time PCR, and normalized to HPRT; *, p<0.05, **, p<0.001, ***, p<0.0001; SCF, stem cell factor, ns, not significant. FIG. 2B is a graph showing stem cell marker expression in MyD88^−/− mice administered sPDNF. TLR-deficient MyD88^−/− mice (C57BL/6 background) (2/group) were injected IV with a single dose of sPDNF (2 mg/kg), sacrificed at 3 hours post-injection, and the indicated cardiac stem cell markers assessed by qPCR. […] Cardiac Sca-1 and SCF transcripts were quantified by qPCR; **, P<0.001; ***, P<0.0005. FIG. 2D is a graph showing quantitation of Sca-1 expression in various organs of mice administered sPDNF. C57BL/6 mice (3 per group), average of two experiments) were injected IV with sPDNF at 4 mg/kg body weight or PBS, sacrificed 3 hours later, and Sca-1 mRNA quantified by qPCR in the liver, heart, colon and bone marrow (*, P<0.05, **, P<0.001; ns, not significant; dotted line represents Sca-1 mRNA of vehicle-treated mice set at 1.0, data are representative of 2 experiments. […]"}, "MCP-1 and FKN": {"test_system": "MCP-1 and FKN", "test": "IV sPDNF into TLR-deficient MyD88-/- mice, MCP-1 and FKN", "type": "in vivo", "details": "IV 100 μg per mouse, 3 hr post-injection", "protocol": "Wild type C57BL/6 mice were used in the results depicted in FIGS. 11A-11D. FIG. 11A is a graph depicting that a single dose of intravenous (IV) sPDNF increased MCP-1 and FKN transcripts in the heart in a pulse-like response. Groups of mice (2 per group) were injected with vehicle (Veh) or sPDNF (150 μg/mouse) and sacrificed at 3, 6, 9 and 12 hr post-injection, and cardiac MCP-1 and FKN transcripts were quantified by qPCR. Points represent fold change of the mean±SD relative to Veh injected mice; *P<0.05 and **P<0.01. Experiment repeated three times with similar results; liver also responded with similar pulselike kinetics. FIG. 11B is a graph depicting that organ distribution of MCP-1 increased following a single IV dose of sPDNF. Experimental design analogous to that summarized above. FIG. 11C is a graph showing that a single IV dose of sPDNF augments MCP-1 and FKN transcripts dose-dependently in the heart. […] For the results depicted in FIGS. 11C and 11D, groups of three mice were injected with various doses of sPDNF, and heart and liver harvested 3 hr post-injection to quantify MCP-1 and FKN by qPCR. […]\nTo ensure that the response observed in wild type mice was not due to TLR activation, MCP-1 and FKN response to IV sPDNF was assessed in TLR-deficient MyD88^−/− mice (23)."}}, "data": [{"molecule": "B1", "values": [{"measurement": "expression of cardiac and hepatic stem cell markers", "setting": "[1]", "value": "increased expression"}, {"measurement": "expression of FKN in the heart and liver", "setting": "MCP-1 and FKN", "value": "sharp increase"}, {"measurement": "expression of MCP-1 in the heart and liver", "setting": "MCP-1 and FKN", "value": "sharp increase"}]}]}
